Laboratory results reported in patent publication US20220064314A1 (QLSF BIOTHERAPEUTICS, published 2022).

T1: mouse 4-1BB on HEK293 cells (mouse, UniProt P20334 24-256)
T1 construct: whole, on cells; also called Mouse 4-1BB transfected HEK293 cells
T1 sequence (looked up): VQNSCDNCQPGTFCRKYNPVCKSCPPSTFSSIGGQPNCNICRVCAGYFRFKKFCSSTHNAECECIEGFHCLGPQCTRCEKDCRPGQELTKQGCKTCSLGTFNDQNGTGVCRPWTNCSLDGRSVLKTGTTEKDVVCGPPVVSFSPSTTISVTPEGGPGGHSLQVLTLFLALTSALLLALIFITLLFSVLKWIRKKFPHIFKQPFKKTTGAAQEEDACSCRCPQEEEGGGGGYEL


How the values were obtained:
human 4-1BB on cells [1] = molecular target: T2, human 4-1BB on cells (human, UniProt Q07011 24-255); assay: cell-based or functional assay
T2 sequence (Q07011 24-255): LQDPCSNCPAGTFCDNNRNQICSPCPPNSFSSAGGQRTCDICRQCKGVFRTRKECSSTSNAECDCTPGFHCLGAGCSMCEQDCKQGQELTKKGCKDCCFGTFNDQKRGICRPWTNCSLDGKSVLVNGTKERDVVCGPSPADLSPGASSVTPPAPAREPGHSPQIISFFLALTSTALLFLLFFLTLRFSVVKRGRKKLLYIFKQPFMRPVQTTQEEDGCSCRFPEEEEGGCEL

[2] = molecular target: T1, mouse 4-1BB on HEK293 cells; assay: flow cytometry, mouse 4-1BB transfected HEK293 cells
Protocol: (§1) Human/Cyno/Mouse 4-1BB transfected HEK293 cells or PHA-P stimulated PBMCs were incubated with serial diluted anti-4-1BB antibodies in FACS buffer (DPBS+ 2% FBS+ 0.05% sodium azide) followed by AF647-labeled F(ab′)2 goat anti-human IgG and 7-AAD. In addition, PBMCs were incubated with FITC Mouse anti-human CD3. Stained 4-1BB expressing HEK293 samples were analyzed using FlowJo by gating on FSC/SSC, followed by live/dead cell gating, and human/Cynomolgous/Mouse 4-1BB+ cells (MFI Geo Mean denoted). Stained Lymphocyte samples were analyzed using FlowJo by gating on FSC/SSC, followed by live/dead cell gating, and CD3+ cells with 4-1BB positives. (Table 2 and Table 3)

[3] = molecular target: T3, cyno 4-1BB on HEK293 cells (cyno, UniProt A9YYE7 24-254); assay: flow cytometry, HEK293 cells over-expressing cyno 4-1BB
T3 construct: whole, on cells; also called Cynomolgous 4-1BB; HEK293 cells over-expressing cyno 4-1BB
T3 sequence (A9YYE7 entry or part of it): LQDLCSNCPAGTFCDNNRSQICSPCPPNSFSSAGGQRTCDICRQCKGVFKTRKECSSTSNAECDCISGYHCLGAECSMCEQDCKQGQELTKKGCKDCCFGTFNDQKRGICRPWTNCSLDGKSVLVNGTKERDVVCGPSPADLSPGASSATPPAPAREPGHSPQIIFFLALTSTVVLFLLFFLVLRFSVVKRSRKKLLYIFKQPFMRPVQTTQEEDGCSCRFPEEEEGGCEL
Protocol: as §1

human 4-1BB on cells [4] = molecular target: T2, human 4-1BB on cells; assay: flow cytometry, HEK293 cells over-expressing human 4-1BB
Protocol: as §1

human 4-1BB on cells [5] = molecular target: T2, human 4-1BB on cells; assay: flow cytometry, activated (PHA-P stimulated) human T cells
Protocol: as §1

human 4-1BB on cells [6] = molecular target: T2, human 4-1BB on cells; assay: cell-based or functional assay; remark: listed apart in the source
[7] = molecular target: T4, 4-1BB (CD137), antigen of the Octet kinetics (UniProt Q07011 24-186, limits assumed); assay: Octet (BLI), mono-valent binding kinetics
T4 construct: also called TNFRSF9

| Binder | NF-kB Stimulation (EC50) (human 4-1BB on cells [1]) [µg/mL] | binding result [2] | EC50 [3] [µg/mL] | EC50 (human 4-1BB on cells [4]) [µg/mL] | EC50 (human 4-1BB on cells [5]) [µg/mL] | NF-KB reporter activation, curve fit Bottom (human 4-1BB on cells [6]) [RLU] | NF-KB reporter activation, curve fit Top (human 4-1BB on cells [6]) [RLU] | Kd [7] [nM] | Response [7] | T1/2 Life [7] [min] | koff [7] [s⁻¹] | kon [7] [M⁻¹ s⁻¹] |
| --- | --- | --- | --- | --- | --- | --- | --- | --- | --- | --- | --- | --- |
| G28.21 (antibody, V domains shown, also called anti-4-1BB mAb G28.21) VH: EVQLQQSGAELVRPGASVKLSCTASGFNIKDYYIHWVNQRPEQGLEWIGRIDPEDGDIAYAPKFQDKATLTVDTSSNTAYLHIIGLTSEDTAVYYCTTGNYYAMDFWGQGTSVTVSS VL: QIVLTQSPAIMSASLGERVTMTCTASSSVSSSYLHWYQQKPGSSPKLWIYSTSNLASGVPARFSGSGSGTSYSLTISSMEAEDAATYYCHQYHRSPPTFGSGTKLEIK | 0.018 | no binding | 0.162 | 0.121 | 0.08 | – | – | – | – | – | – | – |
| cAB 137QL.G28.21.G2 (antibody, human IgG2, V domains shown, Chimeric antibody; also called Chimeric G28.21; cAb G28.21.G2) VH: EVQLQQSGAELVRPGASVKLSCTASGFNIKDYYIHWVNQRPEQGLEWIGRIDPEDGDIAYAPKFQDKATLTVDTSSNTAYLHIIGLTSEDTAVYYCTTGNYYAMDFWGQGTSVTVSS VL: QIVLTQSPAIMSASLGERVTMTCTASSSVSSSYLHWYQQKPGSSPKLWIYSTSNLASGVPARFSGSGSGTSYSLTISSMEAEDAATYYCHQYHRSPPTFGSGTKLEIK | – | – | – | – | – | 879 | 4590 | 14 | 0.204 | 2.2 | 0.00523 | 373000 |
| huF1.1.G2.2.4 (antibody, human IgG2, kappa, V domains shown, also called huF1.1.2.4) VH: QVQLVQSGAEVKKPGASVKVSCKASGYTFTFYTMHWLRQAPGQGLEWIGYINPSSGYTNYNQKFTDRATLTADTSTSTAYMELSSLRSEDTAVYYCARSDGSSSKWYFDVWGQGTTVTVSS VL: EIVLTQSPDFQSATPKEKVTITCRASSSVSYIHWYQQKPGSSPKAWISATSNLASGVPSRFSGSGSGTSYTLTINRVEAEDAATYYCQQWSSNPFTFGQGTKLEIKR | – | – | – | – | – | 838 | 7190 | 40.6 | 0.12 | 2.1 | 0.00559 | 138000 |
| huF1.1.G2.4.4 (antibody, human IgG2, kappa, V domains shown, also called huF1.1.4.4) VH: QVQLVQSGAEVKKPGASVKMSCKASGYTFTFYTMHWLKQAPGQGLEWIGYINPSSGYTNYNQKFTDRATLTADKSTSTAYMELSSLRSEDTAVYYCARSDGSSSKWYFDVWGQGTTVTVSS VL: EIVLTQSPDFQSATPKEKVTITCRASSSVSYIHWYQQKPGSSPKAWISATSNLASGVPSRFSGSGSGTSYTLTINRVEAEDAATYYCQQWSSNPFTFGQGTKLEIKR | – | – | – | – | – | 666 | 5940 | 40.4 | 0.137 | 1.9 | 0.00618 | 153000 |
| F1.1 (antibody, V domains shown, The flow method detects with anti-human IgG; also called anti-4-1BB mAb F1.1) VH: QVQLQQSGAELARPGASVKMSCKASGYTFTFYTMHWLKQRPGQGLEWIGYINPSSGYTNYNQKFTDKATLTADKSSSTAYMQLSSLTSEDSAVYYCARSDGSSSKWYFDVWGTGTTVTVSS VL: QIVLSQSPTILSASPGEKVTMTCRASSSVSYIHWYQQKPGSSPKAWISATSNLASGVPARFSGSGSGTSYSLTISRVEAEDAATYYCQQWSSNPFTFGSGTKLEIK | 0.026 | no binding | 0.392 | 0.341 | 0.233 | – | – | – | – | – | – | – |
| cAb 137QL.F1.1.G2 (antibody, human IgG2, V domains shown, Chimeric antibody; also called Chimeric F1.1; cAb F1.1.G2) VH: QVQLQQSGAELARPGASVKMSCKASGYTFTFYTMHWLKQRPGQGLEWIGYINPSSGYTNYNQKFTDKATLTADKSSSTAYMQLSSLTSEDSAVYYCARSDGSSSKWYFDVWGTGTTVTVSS VL: QIVLSQSPTILSASPGEKVTMTCRASSSVSYIHWYQQKPGSSPKAWISATSNLASGVPARFSGSGSGTSYSLTISRVEAEDAATYYCQQWSSNPFTFGSGTKLEIK | – | – | – | – | – | 894 | 6730 | 41.9 | 0.138 | 2 | 0.00578 | 138000 |
| huG28.21.G2.1.4 (antibody, human IgG2, kappa, V domains shown, also called huG28.21.1.4) VH: EVQLVQSGAEVKKPGATVKISCKASGFNIKDYYIHWVNQAPGKGLEWIGRIDPEDGDIAYAPKFQDRVTLTVDTSTDTAYLELSSLRSEDTAVYYCTTGNYYAMDFWGQGTTVTVSS VL: QIVLTQSPATLSASPGERVTLSCTASSSVSSSYLHWYQQKPGSSPKLWIYSTSNLASGVPARFSGSGPGTSYTLTISSMEPEDAATYYCHQYHRSPPTFGQGTKLEIKR | – | – | – | – | – | 625 | 4170 | 15.3 | 0.181 | 1.8 | 0.00652 | 426000 |
| huG28.21.G2.4.4 (antibody, human IgG2, kappa, V domains shown, also called huG28.21.4.4) VH: EVQLQQSGAEVKKPGATVKLSCKASGFNIKDYYIHWVNQRPGQGLEWIGRIDPEDGDIAYAPKFQDRATLTVDTSTNTAYLELSSLRSEDTAVYYCTTGNYYAMDFWGQGTTVTVSS VL: QIVLTQSPATLSASPGERVTLSCTASSSVSSSYLHWYQQKPGSSPKLWIYSTSNLASGVPARFSGSGPGTSYTLTISSMEPEDAATYYCHQYHRSPPTFGQGTKLEIKR | – | – | – | – | – | 592 | 3920 | 10.4 | 0.175 | 2.5 | 0.00467 | 449000 |
